Measured values as given in article PMC10202413.

Molecular target: T1, protein tyrosine kinase 7 (PTK-7) on HCT-116 cells (UniProt Q13308)
T1 sequence: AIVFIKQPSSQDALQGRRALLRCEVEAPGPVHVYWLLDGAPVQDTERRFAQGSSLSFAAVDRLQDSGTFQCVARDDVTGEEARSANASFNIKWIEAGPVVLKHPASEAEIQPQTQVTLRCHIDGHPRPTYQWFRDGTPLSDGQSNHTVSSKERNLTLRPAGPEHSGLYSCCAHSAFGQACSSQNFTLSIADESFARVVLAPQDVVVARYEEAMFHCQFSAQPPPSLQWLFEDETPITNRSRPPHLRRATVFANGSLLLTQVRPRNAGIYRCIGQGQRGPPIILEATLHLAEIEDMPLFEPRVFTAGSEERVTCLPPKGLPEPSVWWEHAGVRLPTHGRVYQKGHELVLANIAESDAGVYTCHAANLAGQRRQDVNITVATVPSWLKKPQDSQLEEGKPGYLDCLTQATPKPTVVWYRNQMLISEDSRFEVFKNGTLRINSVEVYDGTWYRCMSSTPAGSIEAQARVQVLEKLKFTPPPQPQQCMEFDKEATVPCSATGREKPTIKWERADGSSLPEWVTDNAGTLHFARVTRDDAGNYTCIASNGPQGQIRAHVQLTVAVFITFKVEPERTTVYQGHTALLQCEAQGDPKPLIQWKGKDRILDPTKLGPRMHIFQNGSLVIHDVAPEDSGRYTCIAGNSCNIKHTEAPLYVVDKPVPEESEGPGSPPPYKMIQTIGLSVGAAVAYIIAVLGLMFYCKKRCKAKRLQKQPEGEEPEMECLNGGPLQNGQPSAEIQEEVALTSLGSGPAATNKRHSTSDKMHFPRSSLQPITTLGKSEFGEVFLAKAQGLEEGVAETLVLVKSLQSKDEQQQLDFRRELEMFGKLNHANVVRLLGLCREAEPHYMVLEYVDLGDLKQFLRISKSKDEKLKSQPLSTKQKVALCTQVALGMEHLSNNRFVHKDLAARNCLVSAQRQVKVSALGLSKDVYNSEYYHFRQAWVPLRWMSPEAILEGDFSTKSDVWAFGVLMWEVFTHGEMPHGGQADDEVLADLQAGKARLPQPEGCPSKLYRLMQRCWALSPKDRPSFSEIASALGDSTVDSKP
Test: flow cytometry, cell binding
Conditions: 5 mM Mg2+, Whole cells washed in D-PBS with 4.5 g/L glucose and 5 mM MgCl2, 300,000 cells in 200 ul binding buffer (composition and pH not stated), on ice 30 min …

| Sequence | Kd | Kd (5' amino coupled to p-SCN-Bn-NOTA) |
| --- | --- | --- |
| ATCTAACTGCTGCGCCGCCGGGAAAATACTGTACGGTTAGA [SGC8] | 1.88 nM |  |
| ATCTAACTGCTGCGCCGCCGGGAAAATACTGTACGGTTAGA [NOTA-SGC8] |  | 3.49 nM |
